In paper PMC12170873, “The Spc105/Kre28 complex promotes mitotic error correction by outer kinetochore recruitment of Ipl1/Sli15” (The EMBO Journal, 2025):
Changes are numbered by the printed parent chain. Names may count otherwise. Each block holds one binder with its values, some of them ahead of it.

Columns and labels:
Details in all cases: both partners purified
[1] = target: T1, Spc105-Flag/Kre28 complex (S. cerevisiae, UniProt P53148 1-917; Q04431 1-385); assay: pull-down; KMN or its subcomplexes from Sf9 cells immobilised on anti-Flag M2 beads; 100 µl of 2 µM Ipl1/Sli15 added to ~20 µl beads; 4 °C, 6 h; 25 mM HEPES pH 7.4, 200 mM NaCl, 1 mM MgCl2, 2.5% glycerol, 0.01% Tween-20; eluted with 3xFlag peptide; Coomassie and anti-His blot; also done with prolonged incubation times (Fig. EV3A)
T1 construct: Spc105 (Knl1 homologue), S. cerevisiae; Kre28 (Zwint homologue), S. cerevisiae, wild type; the asterisk is not explained; A potential proteolysis product of full-length Spc105 is marked in the gels; also called Spc105/Kre28; K subcomplex; source: Sf9 insect cells (baculovirus pFAP10), purified on anti-Flag M2 beads; also as part of the co-expressed KMN network (KT1-5 and KT1-6); not shown: Flag, …
T1 sequence (looked up) 1: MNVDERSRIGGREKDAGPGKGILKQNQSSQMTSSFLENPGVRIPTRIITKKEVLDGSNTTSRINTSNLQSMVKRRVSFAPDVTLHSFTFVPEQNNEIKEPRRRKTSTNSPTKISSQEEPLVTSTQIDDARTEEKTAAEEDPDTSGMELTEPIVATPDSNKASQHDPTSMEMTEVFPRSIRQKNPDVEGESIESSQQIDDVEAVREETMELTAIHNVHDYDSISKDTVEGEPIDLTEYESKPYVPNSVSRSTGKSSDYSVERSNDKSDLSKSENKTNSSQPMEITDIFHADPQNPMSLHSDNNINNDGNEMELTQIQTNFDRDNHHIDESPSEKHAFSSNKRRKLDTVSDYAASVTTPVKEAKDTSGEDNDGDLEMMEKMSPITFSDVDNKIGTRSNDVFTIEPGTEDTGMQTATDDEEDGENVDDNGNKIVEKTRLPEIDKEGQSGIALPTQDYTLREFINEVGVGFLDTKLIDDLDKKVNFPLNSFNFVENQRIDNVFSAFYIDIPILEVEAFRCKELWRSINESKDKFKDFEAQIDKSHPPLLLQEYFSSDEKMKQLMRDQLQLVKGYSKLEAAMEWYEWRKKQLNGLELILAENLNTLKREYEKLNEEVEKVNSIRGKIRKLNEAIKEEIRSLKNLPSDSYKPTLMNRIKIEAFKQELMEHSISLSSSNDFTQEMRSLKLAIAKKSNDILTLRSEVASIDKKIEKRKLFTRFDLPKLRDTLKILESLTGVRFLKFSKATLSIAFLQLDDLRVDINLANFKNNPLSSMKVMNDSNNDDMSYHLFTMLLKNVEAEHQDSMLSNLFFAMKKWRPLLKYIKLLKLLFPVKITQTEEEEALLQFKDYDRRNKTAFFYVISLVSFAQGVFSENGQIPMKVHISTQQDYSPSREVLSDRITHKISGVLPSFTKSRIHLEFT
T1 sequence (looked up) 2: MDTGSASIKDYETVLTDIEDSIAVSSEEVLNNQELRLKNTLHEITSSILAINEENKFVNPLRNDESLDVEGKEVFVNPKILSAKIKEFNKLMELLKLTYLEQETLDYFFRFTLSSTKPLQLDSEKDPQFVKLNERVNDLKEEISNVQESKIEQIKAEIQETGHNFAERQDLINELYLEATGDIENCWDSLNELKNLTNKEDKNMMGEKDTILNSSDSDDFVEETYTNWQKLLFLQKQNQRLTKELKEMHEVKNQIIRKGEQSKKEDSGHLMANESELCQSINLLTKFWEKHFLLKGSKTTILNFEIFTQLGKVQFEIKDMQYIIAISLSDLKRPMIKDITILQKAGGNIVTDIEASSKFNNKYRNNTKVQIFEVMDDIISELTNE

[2] = target: T2, recombinant budding yeast KMN network (Spc105-Flag/Kre28^WT, Mtw1 complex, Ndc80 complex) (S. cerevisiae, UniProt P53148 1-917; Q04431 1-385; P39731 1-289; P40568 1-576; P47149 1-201; Q12143 …); assay: cross-linking; recombinant KMN and Ipl1/Sli15 mixed at equimolar amounts, BS3 (d0/d12), 35 °C, 30 min; cross-links identified by mass spectrometry (xQuest)
T2 construct: Spc105 (Knl1 homologue), S. cerevisiae; Kre28 (Zwint homologue), S. cerevisiae, wild type; Mtw1, S. cerevisiae; Dsn1, S. cerevisiae; Nnf1, S. cerevisiae; Nsl1, S. cerevisiae; Ndc80, S. cerevisiae; Nuf2, S. cerevisiae; Spc24, S. cerevisiae; Spc25, S. cerevisiae; also called wild-type Kre28 KMN network; not shown: Flag, C-terminal, kept; copies: + + + + + + + + +

[3] = target: T3, recombinant KMN network containing Kre28^ΔZwint (S. cerevisiae, UniProt P53148 1-917; Q04431 1-385; P39731 1-289; P40568 1-576; P47149 1-201; Q12143 …, ΔZwint (Zwint helix, residues 77–113)); assay: pull-down; KMN or its subcomplexes from Sf9 cells immobilised on anti-Flag M2 beads; 100 µl of 2 µM Ipl1/Sli15 added to ~20 µl beads; 4 °C, 6 h; 25 mM HEPES pH 7.4, 200 mM NaCl, 1 mM MgCl2, 2.5% glycerol, 0.01% Tween-20; eluted with 3xFlag peptide; Coomassie and anti-His blot; also done with prolonged incubation times (Fig. EV3A)
T3 construct: Spc105 (Knl1 homologue), S. cerevisiae; Mtw1, S. cerevisiae; Dsn1, S. cerevisiae; Nnf1, S. cerevisiae; Nsl1, S. cerevisiae; Ndc80, S. cerevisiae; Nuf2, S. cerevisiae; Spc24, S. cerevisiae; Spc25, S. cerevisiae; also called Kre28^ΔZwint KMN network; mutant KMN network; source: Sf9 insect cells, baculoviruses KT1-5 and KT1-6 mut, purified via Spc105-Flag on anti-Flag M2 beads; not shown: Flag, …

binding result [1]: binds
B1: Ipl1/6xHis-Sli15 complex, dephosphorylated by λ phosphatase (complex, S. cerevisiae)
chain 1: MQRNSLVNIKLNANSPSKKTTTRPNTSRINKPWRISHSPQQRNPNSKIPSPVREKLNRLPVNNKKFLDMESSKIPSPIRKATSSKMIHENKKLPKFKSLSLDDFELGKKLGKGKFGKVYCVRHRSTGYICALKVMEKEEIIKYNLQKQFRREVEIQTSLNHPNLTKSYGYFHDEKRVYLLMEYLVNGEMYKLLRLHGPFNDILASDYIYQIANALDYMHKKNIIHRDIKPENILIGFNNVIKLTDFGWSIINPPENRRKTVCGTIDYLSPEMVESREYDHTIDAWALGVLAFELLTGAPPFEEEMKDTTYKRIAALDIKMPSNISQDAQDLILKLLKYDPKDRMRLGDVKMHPWILRNKPFWENKRL
chain 2: MDWAIKAARKKTQRKPGSTRSIIETLDDLNNLTTDAHSEINQRLYESSEWLRNNVYMNTLKYEDKKMEESLISPENTHNKMDVEFPKMKGEYELSNSQNDAAKDVTKTPRNGLHNDKSITPKSLRRKEVTEGMNRFSIHDTNKSPVEPLNSVKVDANESEKSSPWSPYKVEKVLRESSKTSESPINTKRFDNQTWAAKEEMENEPILQALKKAESVKVKPPPNSGIARSQRRSNMFVPLPNKDPLIIQHIPPTKSSGSIPKVRTVKESPIAFKKKSTINSPAIRAVENSDTAGSTKASSVFDRLSSIPTKSFENKISRGNVGHKYSSSSIDLTGSPMKKVSQKFKSINSTDTDMQEALRDIFSVKNKITKNNSPKGKNSRKSSIPRFDKTSLKLTTHKKLAIIAEQKKKSKHSSDVHKTGSRPHSISPTKISVDSSSPSKEVKNYYQSPVRGYLRPTKASISPNKNKNLTTSQTPHRLKIKEKTLRKLSPNIADISKPESRKSKNYRLTNLQLLPPAEAERDDLKKKFDKRLSGIMRSQQEHHRRKQEKQKRMSHLEQDLKKQTSFSNDYKDIRLKESLAPFDNHVRDTINKNTAFSTDNILATINTVDHREIIGNVTPKIASVNDSLPEINTDSEDEASVTLAAWAKSPYLQEQLIRQQDINPQTIFGPIPPLHTDEIFPNPRLNRLKPRQIVPKRS
modifications: dephosphorylated by λ phosphatase | dephosphorylated by λ phosphatase
notes: Ipl1 (Aurora B homologue), S. cerevisiae; Sli15 (INCENP homologue), S. cerevisiae; also called Lambda phosphatase-treated Ipl1/Sli15; source: E. coli BL21, purified (HisTrap, SEC), then treated with λ-Protein Phosphatase (NEB) at 30 °C for 30 min

binding result [2]: binds
binding result [1]: binds
binding result [3]: binds
B2: Ipl1/6xHis-Sli15 complex (wild type, untreated) (complex, S. cerevisiae)
chain 1: B1 chain 1
chain 2: B1 chain 2
notes: Ipl1 (Aurora B homologue), S. cerevisiae; Sli15 (INCENP homologue), S. cerevisiae; the full-length form was preferentially pulled down; also called Ipl1/Sli15; Ipl1/Sli15 complex; source: E. coli BL21, purified (HisTrap, SEC on Superdex 200)

binding result [1]: binds
B3: Ipl1/6xHis-Sli15^4E complex (complex, S. cerevisiae)
chain 1: B1 chain 1
chain 2: B1 chain 2 with R231E, R232E, L239E, K242E
notes: Ipl1 (Aurora B homologue), S. cerevisiae; Sli15 (INCENP homologue), S. cerevisiae, 4E mutant (plasmid pAD146 in pETDuett); also called Sli15^4E mutant; Sli15 R231E R232E L239E K242E; source: E. coli BL21, purified (HisTrap, SEC on Superdex 200)
